B1: Smad2 WT: bacterially expressed full-length Smad2 wild-type (protein)
chain: MSSILPFTPPVVKRLLGWKKSAGGSGGAGGGEQNGQEEKWCEKAVKSLVKKLKKTGRLDELEKAITTQNCNTKCVTIPSTCSEIWGLSTANTVDQWDTTGLYSFSEQTRSLDGRLQVSHRKGLPHVIYCRLWRWPDLHSHHELKAIENCEYAFNLKKDEVCVNPYHYQRVETPVLPPVLVPRHTEILTELPPLDDYTHSIPENTNFPAGIEPQSNYIPETPPPGYISEDGETSDQQLNQSMDTGSPAELSPTTLSPVNHSLDLQPVTYSEPAFWCSIAYYELNQRVGETFHASQPSLTVDGFTDPSNSERFCLGLLSNVNRNATVEMTRRHIGRGVRLYYIGGEVFAECLSDSAIFVQSPNCNQRYGWHPATVCKIPPGCNLKIFNNQEFAALLAQSVNQGFEAVYQLTRMCTIRMSFVKGWGAEYRRQTVTSTPCWIELHLNGPLQWLDKVLTQMGSPSVRCSSMS
modifications: left off: His6, N-terminal, state not stated
notes: bacterially expressed full-length Smad2 wild-type
B2: Smad2-W422A: W422A mutant of full-length Smad2; specific PI(4,5)P2 binding-compromised (protein)
chain: MSSILPFTPPVVKRLLGWKKSAGGSGGAGGGEQNGQEEKWCEKAVKSLVKKLKKTGRLDELEKAITTQNCNTKCVTIPSTCSEIWGLSTANTVDQWDTTGLYSFSEQTRSLDGRLQVSHRKGLPHVIYCRLWRWPDLHSHHELKAIENCEYAFNLKKDEVCVNPYHYQRVETPVLPPVLVPRHTEILTELPPLDDYTHSIPENTNFPAGIEPQSNYIPETPPPGYISEDGETSDQQLNQSMDTGSPAELSPTTLSPVNHSLDLQPVTYSEPAFWCSIAYYELNQRVGETFHASQPSLTVDGFTDPSNSERFCLGLLSNVNRNATVEMTRRHIGRGVRLYYIGGEVFAECLSDSAIFVQSPNCNQRYGWHPATVCKIPPGCNLKIFNNQEFAALLAQSVNQGFEAVYQLTRMCTIRMSFVKGAGAEYRRQTVTSTPCWIELHLNGPLQWLDKVLTQMGSPSVRCSSMS
modifications: left off: His6, N-terminal, state not stated
B3: Smad2- R427A/R428A: double mutant of full-length Smad2; PI(4,5)P2 and TβRI binding-compromised (protein)
chain: MSSILPFTPPVVKRLLGWKKSAGGSGGAGGGEQNGQEEKWCEKAVKSLVKKLKKTGRLDELEKAITTQNCNTKCVTIPSTCSEIWGLSTANTVDQWDTTGLYSFSEQTRSLDGRLQVSHRKGLPHVIYCRLWRWPDLHSHHELKAIENCEYAFNLKKDEVCVNPYHYQRVETPVLPPVLVPRHTEILTELPPLDDYTHSIPENTNFPAGIEPQSNYIPETPPPGYISEDGETSDQQLNQSMDTGSPAELSPTTLSPVNHSLDLQPVTYSEPAFWCSIAYYELNQRVGETFHASQPSLTVDGFTDPSNSERFCLGLLSNVNRNATVEMTRRHIGRGVRLYYIGGEVFAECLSDSAIFVQSPNCNQRYGWHPATVCKIPPGCNLKIFNNQEFAALLAQSVNQGFEAVYQLTRMCTIRMSFVKGWGAEYAAQTVTSTPCWIELHLNGPLQWLDKVLTQMGSPSVRCSSMS
modifications: left off: His6, N-terminal, state not stated
B4: Smad2-E425K: charge-reversal mutant of full-length Smad2; PI(4,5)P2 and TβRI binding-enhanced (protein)
chain: MSSILPFTPPVVKRLLGWKKSAGGSGGAGGGEQNGQEEKWCEKAVKSLVKKLKKTGRLDELEKAITTQNCNTKCVTIPSTCSEIWGLSTANTVDQWDTTGLYSFSEQTRSLDGRLQVSHRKGLPHVIYCRLWRWPDLHSHHELKAIENCEYAFNLKKDEVCVNPYHYQRVETPVLPPVLVPRHTEILTELPPLDDYTHSIPENTNFPAGIEPQSNYIPETPPPGYISEDGETSDQQLNQSMDTGSPAELSPTTLSPVNHSLDLQPVTYSEPAFWCSIAYYELNQRVGETFHASQPSLTVDGFTDPSNSERFCLGLLSNVNRNATVEMTRRHIGRGVRLYYIGGEVFAECLSDSAIFVQSPNCNQRYGWHPATVCKIPPGCNLKIFNNQEFAALLAQSVNQGFEAVYQLTRMCTIRMSFVKGWGAKYRRQTVTSTPCWIELHLNGPLQWLDKVLTQMGSPSVRCSSMS
modifications: left off: His6, N-terminal, state not stated
B5: Smad2-Y426A: Y426A mutant of full-length Smad2; specific PI(4,5)P2 binding-compromised (protein)
chain: MSSILPFTPPVVKRLLGWKKSAGGSGGAGGGEQNGQEEKWCEKAVKSLVKKLKKTGRLDELEKAITTQNCNTKCVTIPSTCSEIWGLSTANTVDQWDTTGLYSFSEQTRSLDGRLQVSHRKGLPHVIYCRLWRWPDLHSHHELKAIENCEYAFNLKKDEVCVNPYHYQRVETPVLPPVLVPRHTEILTELPPLDDYTHSIPENTNFPAGIEPQSNYIPETPPPGYISEDGETSDQQLNQSMDTGSPAELSPTTLSPVNHSLDLQPVTYSEPAFWCSIAYYELNQRVGETFHASQPSLTVDGFTDPSNSERFCLGLLSNVNRNATVEMTRRHIGRGVRLYYIGGEVFAECLSDSAIFVQSPNCNQRYGWHPATVCKIPPGCNLKIFNNQEFAALLAQSVNQGFEAVYQLTRMCTIRMSFVKGWGAEARRQTVTSTPCWIELHLNGPLQWLDKVLTQMGSPSVRCSSMS
modifications: left off: His6, N-terminal, state not stated
B6: Smad2-K420A: K420A mutant of full-length Smad2; predominantly TβRI binding-compromised (protein)
chain: MSSILPFTPPVVKRLLGWKKSAGGSGGAGGGEQNGQEEKWCEKAVKSLVKKLKKTGRLDELEKAITTQNCNTKCVTIPSTCSEIWGLSTANTVDQWDTTGLYSFSEQTRSLDGRLQVSHRKGLPHVIYCRLWRWPDLHSHHELKAIENCEYAFNLKKDEVCVNPYHYQRVETPVLPPVLVPRHTEILTELPPLDDYTHSIPENTNFPAGIEPQSNYIPETPPPGYISEDGETSDQQLNQSMDTGSPAELSPTTLSPVNHSLDLQPVTYSEPAFWCSIAYYELNQRVGETFHASQPSLTVDGFTDPSNSERFCLGLLSNVNRNATVEMTRRHIGRGVRLYYIGGEVFAECLSDSAIFVQSPNCNQRYGWHPATVCKIPPGCNLKIFNNQEFAALLAQSVNQGFEAVYQLTRMCTIRMSFVAGWGAEYRRQTVTSTPCWIELHLNGPLQWLDKVLTQMGSPSVRCSSMS
modifications: left off: His6, N-terminal, state not stated
B7: EGFP-Smad2 WT: mouse EGFP-Smad2 wild type transfected into HeLa cells (protein, UniProt Q62432 2-467, looked up)
Mothers against …: SSILPFTPPVVKRLLGWKKSAGGSGGAGGGEQNGQEEKWCEKAVKSLVKKLKKTGRLDELEKAITTQNCNTKCVTIPSTCSEIWGLSTANTVDQWDTTGLYSFSEQTRSLDGRLQVSHRKGLPHVIYCRLWRWPDLHSHHELKAIENCEYAFNLKKDEVCVNPYHYQRVETPVLPPVLVPRHTEILTELPPLDDYTHSIPENTNFPAGIEPQSNYIPETPPPGYISEDGETSDQQLNQSMDTGSPAELSPTTLSPVNHSLDLQPVTYSEPAFWCSIAYYELNQRVGETFHASQPSLTVDGFTDPSNSERFCLGLLSNVNRNATVEMTRRHIGRGVRLYYIGGEVFAECLSDSAIFVQSPNCNQRYGWHPATVCKIPPGCNLKIFNNQEFAALLAQSVNQGFEAVYQLTRMCTIRMSFVKGWGAEYRRQTVTSTPCWIELHLNGPLQWLDKVLTQMGSPSVRCSSMS
modifications: EGFP fusion
notes: mouse EGFP-Smad2 wild type transfected into HeLa cells

The molecules below were run on HeLa cells (assay: Smad2 phosphorylation (pS465/pS467), Western blot). Conditions: HeLa cells, PI(4,5)P2 depletion.
Format: cell-based
Method: Two separate gels were used to accommodate all mutants. An empty vector transfection (vehicle) was used for a negative control for each gel. Glyceraldehyde 3-phosphate dehydrogenase (GAPDH) was used as a gel loading control. Data in A and B are quantified in Fig. S3A. C, TGF-β stimulated (10 ng/ml for 1 h) nuclear translocation of mouse EGFP-WT, -K420A, -W422A, -E425K, -Y426A, and -R427A/R428A transfected into HeLa cells whose endogenous Smad2 was suppressed by siRNA. For Smad2-WT, the effect of PI(4,5)P2 depletion was measured. Arrows indicate nuclear accumulation of EGFP-WT and EGFP-E425K. Scale bars indicate 10 μm. D, quantification of (C). (Inuc/Icyto) was calculated from total nuclear and cytosolic fluorescence intensity values. Blank and black bars indicate values before and after TGF-β stimulation. Error bars indicate S.D. values from >3 measurements (n = 10). E, Smad2 transcriptional activity measured by the luciferase assay. Blank and black bars indicate values before and after TGF-β stimulation. Error bars indicate S.D. values from >3 measurements (n = 10).
HeLa cells were plated on 6-well or 48-well plates at the density of ∼1.5 × 10^5 or 1.25 × 10^4 for 24 h and 30 nM human Smad2 (or SARA) DsiRNAs (IDT: see sequences below) were transfected into cells using the jetPRIME system (Polyplus transfection) according to the manufacturer's protocols. After transfection with siRNA for 24 h, the medium was exchanged with a fresh one and cells were transfected again with 1 μg/ml of the mouse Smad2 expression vector. In total, 24 to 48 h after transfection, cells were used for further treatment or Western blot analysis. The sequences of DsiRNAs are as follows: SMAD2-siRNA1 (sense: 5′-[…]-3′; antisense: 5′-[…]-3′); SMAD2-siRNA2 (sense: 5′-[…]-3′; antisense: 5′-[…]-3′); SMAD2-siRNA3 (sense: 5′-[…]-3′; antisense: 5′-[…]-3′); SARA-siRNA1 (sense: 5′-[…]-3′; antisense: 5′-[…]-3′); SARA-siRNA2 (sense: 5′-[…]-3′; antisense: 5′-[…]-3′).
Transfected cells or treated cells were lysed in the cell lysis buffer (20 mM Tris-HCl, pH 7.5, containing 150 mM NaCl, 1 mM Na2EDTA, 1 mM EGTA, 1% Triton-X, protease inhibitors, and phosphatase inhibitors) (1 mM Na3VO4, 1 mM NaF, 1 μg/ml leupeptin, 1 mM phenylmethanesulfonylfluoride, 1.5 mM benzamidine, and 2 μg/ml pepstatin). The total protein concentration of the cell lysate was determined by the Pierce BCA protein assay kit (Thermo scientific). The same amounts of proteins were loaded onto a polyacrylamide gel to run sodium dodecyl sulfate–polyacrylamide gel electrophoresis. Proteins were separated and transferred to a polyvinylidene difluoride membrane. The membrane was blocked with 5% bovine serum albumin for 1 h and incubated overnight at 4 °C with various antibodies (1:1000 dilution for all antibodies). After the unbound antibodies were removed by washing with 0.1% Tris buffer saline with 0.1% Tween20, the membranes were incubated with the horseradish peroxidase secondary antibody (1:5000 dilution) for 1 h at room temperature. The membranes were washed three more times with 0.1% Tris buffer saline with 0.1% Tween20 to remove the unbound horseradish peroxidase secondary antibody before imaging. The chemiluminescence intensity of protein bands in the gel was analyzed and documented by the Azure 500Q Imaging System.

Molecule | Smad2 phosphorylation after PI(4,5)P2 depletion
B1 | greatly suppressed Smad2 phosphorylation

Same assay, conditions: Smad2-depleted HeLa cells, 10 ng/ml TGF-β, 48 h

Molecule | Smad2 phosphorylation after TGF-β stimulation
B2 | minimally phosphorylated
B3 | minimally phosphorylated
B4 | phosphorylated to a larger extent than WT
B5 | minimally phosphorylated
B6 | little phosphorylation after TGF-β stimulation
B7 | fully restored after TGF-β stimulation
